From the Human Domainome abundance scans (Beltran et al. 2025)
± gives the uncertainty stated by the source.

B1: Far upstream element-binding protein 1, residues 98 to 169; numbered along this chain, Q96AE4 (parent)
chain: RSVMTEEYKVPDGMVGFIIGRGGEQISRIQQESGCKIQIAPDSGGLPERSCMLTGTPESVQSAKRLLDQIVE

Variants of: B1
Test: abundance fitness (aPCA) (normalised: wild type 0, dead -1); higher = more abundant; growth selection in yeast, the domain comes from the species named
Conditions: Homo sapiens

Row | Variant | abundance fitness
1 | A40D | -0.039 ± 0.045
2 | A40S | -0.034 ± 0.032
3 | A40F | -0.101 ± 0.058
4 | A40R | -0.064 ± 0.026
5 | A40Q | -0.045 ± 0.036
6 | A40G | -0.039 ± 0.025
7 | A40L | -0.05 ± 0.029
8 | A40K | -0.058 ± 0.038
9 | A40T | -0.024 ± 0.038
10 | A40P | -0.02 ± 0.036
11 | A40M | -0.032 ± 0.041
12 | A40C | -0.023 ± 0.045
13 | A40V | -0.089 ± 0.029
14 | A40Y | -0.088 ± 0.081
15 | A40N | -0.103 ± 0.055
16 | I39C | -0.109 ± 0.044
17 | I39V | -0.032 ± 0.029
18 | I39D | -0.51 ± 0.055
19 | I39A | -0.252 ± 0.031
20 | I39N | -0.415 ± 0.061
21 | I39W | -0.109 ± 0.03
22 | I39H | -0.266 ± 0.06
23 | I39F | 0.038 ± 0.05
24 | I39M | -0.026 ± 0.036

Row | Variant | abundance fitness
25 | I39T | -0.227 ± 0.035
26 | I39R | -0.369 ± 0.026
27 | I39Y | -0.207 ± 0.047
28 | I39Q | -0.35 ± 0.035
29 | I39L | -0.081 ± 0.029
30 | I39E | -0.36 ± 0.036
31 | I39K | -0.445 ± 0.043
32 | K36S | -0.041 ± 0.028
33 | K36W | -0.129 ± 0.029
34 | K36Y | -0.149 ± 0.052
35 | K36V | -0.022 ± 0.027
36 | K36T | -0.062 ± 0.031
37 | G44F | -0.107 ± 0.035
38 | G44W | -0.125 ± 0.033
39 | G44M | -0.012 ± 0.033
40 | G44S | -0.003 ± 0.025
41 | G44I | -0.064 ± 0.033
42 | G44A | -0.013 ± 0.026
43 | G44P | -0.061 ± 0.03
44 | G44N | -0.024 ± 0.033
45 | G44H | -0.092 ± 0.035
46 | G44R | -0.015 ± 0.024
47 | G44T | 0.002 ± 0.028
48 | G44Q | -0.023 ± 0.034

Row | Variant | abundance fitness
49 | G44E | -0.004 ± 0.031
50 | G44D | -0.017 ± 0.032
51 | G44Y | -0.037 ± 0.034
52 | G44L | -0.05 ± 0.025
53 | G44C | -0.019 ± 0.036
54 | L46D | -0.006 ± 0.046
55 | L46F | -0.004 ± 0.052
56 | L46E | 0.016 ± 0.034
57 | L46Q | -0.001 ± 0.042
58 | L46C | -0.026 ± 0.038
59 | L46G | -0.01 ± 0.025
60 | L46K | -0.006 ± 0.037
61 | L46M | -0.031 ± 0.036
62 | L46H | -0.011 ± 0.058
63 | L46P | -0.124 ± 0.037
64 | L46N | -0.023 ± 0.055
65 | L46I | -0.092 ± 0.049
66 | S43C | -0.131 ± 0.04
67 | S43L | -0.098 ± 0.03
68 | S43K | -0.091 ± 0.037
69 | S43W | -0.142 ± 0.037
70 | S43R | -0.086 ± 0.027
71 | S43M | -0.087 ± 0.035
72 | S43I | -0.024 ± 0.044

Row | Variant | abundance fitness
73 | S43D | -0.042 ± 0.047
74 | S43A | -0.016 ± 0.03
75 | S43P | -0.234 ± 0.033
76 | S43G | -0.066 ± 0.026
77 | S43T | -0.037 ± 0.032
78 | S43V | -0.068 ± 0.029
79 | S43Y | -0.124 ± 0.043
80 | S43N | -0.043 ± 0.045
81 | D42K | -0.026 ± 0.036
82 | D42S | -0.024 ± 0.029
83 | D42R | -0.027 ± 0.025
84 | D42I | -0.085 ± 0.048
85 | D42A | -0.041 ± 0.028
86 | D42E | 0.014 ± 0.031
87 | D42L | -0.095 ± 0.029
88 | D42M | -0.08 ± 0.035
89 | D42Y | -0.113 ± 0.045
90 | D42Q | -0.054 ± 0.038
91 | D42C | -0.015 ± 0.041
92 | D42F | -0.094 ± 0.052
93 | D42P | 0.004 ± 0.038
94 | D42H | -0.04 ± 0.053
95 | D42W | -0.089 ± 0.032
96 | D42N | -0.031 ± 0.044

Row | Variant | abundance fitness
97 | D42T | -0.053 ± 0.034
98 | G45W | -0.166 ± 0.036
99 | G45I | -0.14 ± 0.057
100 | G45K | -0.086 ± 0.042
101 | G45N | -0.094 ± 0.067
102 | G45Q | -0.046 ± 0.042
103 | G45H | -0.163 ± 0.063
104 | G45E | -0.023 ± 0.033
105 | G45Y | -0.095 ± 0.048
106 | G45C | -0.034 ± 0.045
107 | G45D | -0.002 ± 0.036
108 | G45M | -0.093 ± 0.041
109 | G45T | -0.074 ± 0.036
110 | G45S | -0.027 ± 0.03
111 | G45V | -0.111 ± 0.029
112 | G45P | -0.078 ± 0.037
113 | G45R | -0.078 ± 0.026
114 | G45L | -0.115 ± 0.031
115 | G45A | -0.046 ± 0.033
116 | P41T | -0.016 ± 0.032
117 | P41R | -0.031 ± 0.023
118 | P41D | 0.009 ± 0.041
119 | P41I | -0.176 ± 0.048
120 | P41H | -0.124 ± 0.049

Row | Variant | abundance fitness
121 | P41E | 0.005 ± 0.033
122 | P41V | -0.111 ± 0.029
123 | P41M | -0.064 ± 0.039
124 | P41A | -0.044 ± 0.028
125 | P41N | -0.051 ± 0.047
126 | P41L | -0.155 ± 0.027
127 | P41K | -0.04 ± 0.037
128 | P41F | -0.198 ± 0.051
129 | P41Y | -0.16 ± 0.051
130 | P41Q | -0.031 ± 0.035
131 | P41C | -0.025 ± 0.038
132 | P41S | -0.023 ± 0.028
133 | Q38E | 0.023 ± 0.034
134 | Q38T | -0.027 ± 0.035
135 | Q38A | -0.017 ± 0.029
136 | Q38Y | -0.138 ± 0.052
137 | Q38S | -0.007 ± 0.03
138 | Q38D | -0.042 ± 0.043
139 | Q38L | -0.036 ± 0.031
140 | Q38R | -0.032 ± 0.024
141 | Q38K | -0.041 ± 0.039
142 | Q38P | -0.844 ± 0.045
143 | Q38I | 0.001 ± 0.054
144 | Q38H | -0.034 ± 0.049

Row | Variant | abundance fitness
145 | Q38M | -0.038 ± 0.037
146 | Q38F | -0.031 ± 0.057
147 | Q38W | -0.049 ± 0.031
148 | Q38C | -0.005 ± 0.037
149 | Q38G | -0.09 ± 0.025
150 | I37N | -0.848 ± 0.083
151 | I37H | -0.775 ± 0.094
152 | I37S | -0.788 ± 0.041
153 | I37P | -0.679 ± 0.042
154 | I37K | -0.911 ± 0.08
155 | I37A | -0.313 ± 0.03
156 | I37Y | -0.963 ± 0.11
157 | I37M | -0.081 ± 0.039
158 | I37D | -0.873 ± 0.07
159 | I37C | -0.129 ± 0.042
160 | I37V | -0.038 ± 0.028
161 | I37F | -0.25 ± 0.055
162 | I37T | -0.48 ± 0.041
163 | I37E | -0.937 ± 0.055
164 | I37R | -1.05 ± 0.04
165 | I37Q | -0.911 ± 0.067
166 | I37W | -0.933 ± 0.049
167 | I37L | -0.087 ± 0.028
